Key:
NMYC = molecular target: T1, NMYC (human, UniProt P04198 1-464); assay: yeast two hybrid
T1 construct: In pGADT7 (AD fusion) for yeast two hybrid
T1 sequence (looked up): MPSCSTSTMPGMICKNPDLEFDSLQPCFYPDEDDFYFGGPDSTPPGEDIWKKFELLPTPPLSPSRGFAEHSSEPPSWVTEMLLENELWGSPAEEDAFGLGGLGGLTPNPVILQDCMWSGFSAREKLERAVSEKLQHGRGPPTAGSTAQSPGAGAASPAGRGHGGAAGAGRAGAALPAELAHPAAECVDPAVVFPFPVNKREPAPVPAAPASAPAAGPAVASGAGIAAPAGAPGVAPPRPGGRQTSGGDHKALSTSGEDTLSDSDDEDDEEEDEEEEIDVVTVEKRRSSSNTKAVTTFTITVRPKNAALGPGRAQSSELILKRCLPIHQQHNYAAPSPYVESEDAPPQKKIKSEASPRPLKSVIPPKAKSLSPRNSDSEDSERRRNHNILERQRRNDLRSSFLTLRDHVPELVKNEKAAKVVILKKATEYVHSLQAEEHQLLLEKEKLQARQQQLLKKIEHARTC

uPAR-D1D2 = molecular target: T2, uPAR-D1D2 (Homo sapiens (Human), UniProt Q03405 23-335, limits assumed); assay: yeast two hybrid
T2 construct: It is tied to 'D3 domain deficient uPAR' by its name only; also called D3 domain deficient uPAR
T2 sequence (Q03405 other isoform, or with tags, fused parts or gaps limits assumed): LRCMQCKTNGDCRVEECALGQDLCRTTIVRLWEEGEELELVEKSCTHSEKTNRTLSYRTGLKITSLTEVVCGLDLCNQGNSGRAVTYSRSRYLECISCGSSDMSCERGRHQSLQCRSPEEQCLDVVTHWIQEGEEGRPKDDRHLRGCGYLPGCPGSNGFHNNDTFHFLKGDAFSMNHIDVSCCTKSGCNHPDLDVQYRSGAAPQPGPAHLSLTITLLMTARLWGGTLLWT

GhNINJA = molecular target: T3, GhNINJA (cotton); assay: yeast two hybrid
T3 chain: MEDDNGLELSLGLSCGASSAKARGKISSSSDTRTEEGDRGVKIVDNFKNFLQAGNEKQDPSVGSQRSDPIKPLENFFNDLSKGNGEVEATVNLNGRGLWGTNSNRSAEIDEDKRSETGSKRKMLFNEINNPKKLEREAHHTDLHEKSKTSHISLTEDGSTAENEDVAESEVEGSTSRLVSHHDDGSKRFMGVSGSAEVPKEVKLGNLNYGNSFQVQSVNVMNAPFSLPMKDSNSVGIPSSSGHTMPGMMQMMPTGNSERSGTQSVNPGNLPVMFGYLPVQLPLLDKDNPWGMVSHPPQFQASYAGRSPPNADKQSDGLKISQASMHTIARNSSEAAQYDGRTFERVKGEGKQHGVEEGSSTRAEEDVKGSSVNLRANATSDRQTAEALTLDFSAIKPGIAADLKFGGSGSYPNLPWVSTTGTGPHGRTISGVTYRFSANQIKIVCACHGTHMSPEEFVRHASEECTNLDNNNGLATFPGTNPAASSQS

GhTPL = molecular target: T4, GhTPL (cotton); assay: yeast two hybrid
T4 chain: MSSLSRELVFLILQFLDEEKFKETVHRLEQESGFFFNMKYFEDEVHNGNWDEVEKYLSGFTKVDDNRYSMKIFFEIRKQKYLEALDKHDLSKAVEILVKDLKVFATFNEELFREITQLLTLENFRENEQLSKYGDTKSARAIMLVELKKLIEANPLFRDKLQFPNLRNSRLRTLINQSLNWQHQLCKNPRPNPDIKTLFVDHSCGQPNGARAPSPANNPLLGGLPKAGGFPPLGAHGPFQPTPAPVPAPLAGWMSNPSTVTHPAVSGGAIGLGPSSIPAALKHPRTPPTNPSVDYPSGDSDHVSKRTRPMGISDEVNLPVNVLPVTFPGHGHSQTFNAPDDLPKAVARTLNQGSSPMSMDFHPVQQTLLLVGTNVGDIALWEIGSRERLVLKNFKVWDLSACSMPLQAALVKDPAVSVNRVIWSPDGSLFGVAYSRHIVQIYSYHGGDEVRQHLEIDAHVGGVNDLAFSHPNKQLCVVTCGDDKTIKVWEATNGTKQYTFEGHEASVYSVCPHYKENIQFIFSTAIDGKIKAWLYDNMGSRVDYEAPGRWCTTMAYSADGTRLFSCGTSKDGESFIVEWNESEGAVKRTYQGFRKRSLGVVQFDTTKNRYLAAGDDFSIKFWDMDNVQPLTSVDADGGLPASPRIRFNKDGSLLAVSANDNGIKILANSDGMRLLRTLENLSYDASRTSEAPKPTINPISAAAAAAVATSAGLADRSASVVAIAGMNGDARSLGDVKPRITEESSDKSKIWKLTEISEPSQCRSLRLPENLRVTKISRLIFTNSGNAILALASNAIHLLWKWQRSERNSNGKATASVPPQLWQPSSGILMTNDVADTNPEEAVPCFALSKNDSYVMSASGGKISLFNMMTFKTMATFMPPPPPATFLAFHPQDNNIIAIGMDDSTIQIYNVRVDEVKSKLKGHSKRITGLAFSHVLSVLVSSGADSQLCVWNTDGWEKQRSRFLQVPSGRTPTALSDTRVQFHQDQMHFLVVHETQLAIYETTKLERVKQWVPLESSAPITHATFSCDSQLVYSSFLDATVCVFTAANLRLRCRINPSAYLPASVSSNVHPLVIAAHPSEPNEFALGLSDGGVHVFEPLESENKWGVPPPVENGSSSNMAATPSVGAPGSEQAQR

GhHDA6 = molecular target: T5, GhHDA6 (cotton); assay: yeast two hybrid
T5 chain: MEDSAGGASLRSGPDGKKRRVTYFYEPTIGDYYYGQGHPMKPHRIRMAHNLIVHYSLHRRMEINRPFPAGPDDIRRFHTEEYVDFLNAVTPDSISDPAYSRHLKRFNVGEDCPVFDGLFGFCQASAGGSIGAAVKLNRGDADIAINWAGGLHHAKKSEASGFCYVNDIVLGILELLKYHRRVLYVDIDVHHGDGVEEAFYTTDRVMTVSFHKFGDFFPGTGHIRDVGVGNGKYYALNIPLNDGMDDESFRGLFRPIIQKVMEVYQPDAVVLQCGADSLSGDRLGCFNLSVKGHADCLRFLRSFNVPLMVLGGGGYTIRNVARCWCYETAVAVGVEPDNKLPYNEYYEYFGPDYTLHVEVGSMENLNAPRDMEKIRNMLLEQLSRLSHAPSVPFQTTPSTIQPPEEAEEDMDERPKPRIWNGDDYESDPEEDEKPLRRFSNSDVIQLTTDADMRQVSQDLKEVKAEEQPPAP

c-Myc-150aa = molecular target: T6, c-Myc-150aa (human, UniProt P01106 1-150); assay: luciferase complementation (FIG. 13 E)
T6 construct: Also tested by LUC, for which the construct is not described; also called first 150 amino acids truncated c-Myc
T6 sequence (P01106 1-150 limits assumed): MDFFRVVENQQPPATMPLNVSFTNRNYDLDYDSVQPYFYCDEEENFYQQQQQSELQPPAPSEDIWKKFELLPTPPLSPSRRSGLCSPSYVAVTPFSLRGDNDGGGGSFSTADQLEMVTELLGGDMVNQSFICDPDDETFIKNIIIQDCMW

c-Myc-215aa = molecular target: T7, c-Myc-215aa (human, UniProt P01106 1-215); assay: luciferase complementation (FIG. 13 E)
T7 construct: Also tested by LUC, for which the construct is not described
T7 sequence (P01106 1-215 limits assumed): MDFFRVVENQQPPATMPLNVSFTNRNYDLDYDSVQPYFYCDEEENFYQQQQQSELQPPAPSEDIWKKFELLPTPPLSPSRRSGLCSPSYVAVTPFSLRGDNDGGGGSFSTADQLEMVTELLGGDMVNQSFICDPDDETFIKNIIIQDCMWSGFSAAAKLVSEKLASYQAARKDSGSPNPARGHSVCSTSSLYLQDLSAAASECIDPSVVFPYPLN

GhCOI1 = molecular target: T8, GhCOI1 (cotton); assay: yeast two hybrid, JA-Ile in the medium
T8 chain: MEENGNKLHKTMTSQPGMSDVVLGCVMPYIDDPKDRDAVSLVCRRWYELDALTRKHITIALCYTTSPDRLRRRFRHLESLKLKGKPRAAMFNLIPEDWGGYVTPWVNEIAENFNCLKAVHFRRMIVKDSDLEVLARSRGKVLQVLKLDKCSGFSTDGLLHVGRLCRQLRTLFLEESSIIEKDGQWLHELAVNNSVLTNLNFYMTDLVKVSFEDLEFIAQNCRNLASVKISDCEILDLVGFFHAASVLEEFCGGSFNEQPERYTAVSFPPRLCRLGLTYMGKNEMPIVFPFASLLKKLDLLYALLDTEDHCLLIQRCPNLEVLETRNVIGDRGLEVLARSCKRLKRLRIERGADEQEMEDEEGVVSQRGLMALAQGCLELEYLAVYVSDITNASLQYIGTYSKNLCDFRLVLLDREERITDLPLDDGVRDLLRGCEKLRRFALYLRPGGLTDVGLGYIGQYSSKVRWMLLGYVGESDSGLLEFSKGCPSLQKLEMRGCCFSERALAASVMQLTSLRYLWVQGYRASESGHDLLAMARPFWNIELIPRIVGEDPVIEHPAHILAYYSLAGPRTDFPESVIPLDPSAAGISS
Experimental: The study on Arabidopsis had shown that the inhibition of JAZ protein on JA signaling was mainly achieved by inhibiting the transcription factor function of MYC, which had been experimentally verified by us in cotton. Based on the phylogenetic tree of Arabidopsis and cotton JAZs, we screened 6 cotton JAZs (GhJAZ1, GhJAZ7, GhJAZ9, GhJAZ10, GhJAZ11 and GhJAZ31), which were analyzed with GhMYC2, GhNINJA, GhTPL, GhHDA6, and GhCOI1 for yeast two hybrid. The amino acid sequence of GhJAZ1 was set forth in SEQ ID No. 4, and the corresponding encoding gene sequence was set forth in SEQ ID No. 39; the amino acid sequence of GhJAZ7 was set forth in SEQ ID No. 7, and the corresponding encoding gene sequence was set forth in SEQ ID No. 42; the amino acid sequence of GhJAZ9 was set forth in SEQ ID No. 2, and the corresponding encoding gene sequence was set forth in SEQ ID No. 37; the amino acid sequence of GhJAZ10 was set forth in SEQ ID No. 3, and the corresponding encoding gene sequence was set forth in SEQ ID No. 38; the amino acid sequence of GhJAZ11 was set forth in SEQ ID No. 5, and the corresponding encoding gene sequence was set forth in SEQ ID No. 40; and the amino acid sequence of GhJAZ31 was set forth in SEQ ID No. 9, and the corresponding encoding gene sequence was set forth in SEQ ID No. 44. […]

GhMYC2 = GhMYC2 (cotton); assay: luciferase complementation in tobacco leaves (FIG. 5B)
Sequence of GhMYC2 (cotton) (chain, as listed by the source limits assumed): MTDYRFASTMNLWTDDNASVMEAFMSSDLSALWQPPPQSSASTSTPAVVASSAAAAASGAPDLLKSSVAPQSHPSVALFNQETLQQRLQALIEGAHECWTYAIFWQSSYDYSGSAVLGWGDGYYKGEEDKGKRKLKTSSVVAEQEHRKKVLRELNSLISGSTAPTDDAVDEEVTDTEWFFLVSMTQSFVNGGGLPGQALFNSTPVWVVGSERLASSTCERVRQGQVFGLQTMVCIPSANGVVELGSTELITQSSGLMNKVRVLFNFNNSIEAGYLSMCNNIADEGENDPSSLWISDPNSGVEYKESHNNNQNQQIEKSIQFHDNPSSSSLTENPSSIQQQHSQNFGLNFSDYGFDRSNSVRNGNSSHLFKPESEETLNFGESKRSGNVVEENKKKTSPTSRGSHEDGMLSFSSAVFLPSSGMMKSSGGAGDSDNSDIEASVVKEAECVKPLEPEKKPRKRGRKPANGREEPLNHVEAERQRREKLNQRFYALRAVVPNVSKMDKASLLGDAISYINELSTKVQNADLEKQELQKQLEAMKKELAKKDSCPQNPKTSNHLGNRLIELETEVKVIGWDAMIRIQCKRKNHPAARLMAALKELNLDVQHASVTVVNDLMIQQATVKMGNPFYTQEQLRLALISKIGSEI
Experimental: The constructed plasmids were then transformed into Agrobacterium GV3101 (pSoup-p19) (Shanghai Weidi Company, Cat. No.: AC1003), and placed successively on ice for 5 min, in liquid nitrogen for 5 min, in water bath at 37° C. for 5 min, and on ice for 5 min, and then LB liquid medium was added for cultivation at 28° C. and 220 rpm for 2-3 h, followed by plating onto LB solid plates containing corresponding antibiotics (kanamycin+rifampicin) for cultivation at 28° C. for 2-3 days. Positive monoclonal clones were picked for cultivation after colonies grown out. The corresponding NLUC and CLUC vectors then were mixed and injected into tobacco leaves (1 day in the dark/1 day in the light). Luciferase substrates were applied at the infected leaves before taking images and placed in a dark room for at least 6 min to quench fluorescence, followed by observation on the Nightowl-II LB983 instrument, using IndigoBasic software under the luciferase-5 min setting conditions.

c-Myc = molecular target: T9, c-Myc (human, UniProt P01106 1-454, limits assumed); assay: luciferase complementation in tobacco leaves (FIG. 6F)
T9 construct: In pGADT7 (AD fusion) for yeast two hybrid, pCAMBIA-NLuc for LUC, pUC-SPYCE for BiFC; also called proto-oncogene c-Myc; full length of c-Myc
T9 sequence (P01106 whole entry, the tested form may be a part): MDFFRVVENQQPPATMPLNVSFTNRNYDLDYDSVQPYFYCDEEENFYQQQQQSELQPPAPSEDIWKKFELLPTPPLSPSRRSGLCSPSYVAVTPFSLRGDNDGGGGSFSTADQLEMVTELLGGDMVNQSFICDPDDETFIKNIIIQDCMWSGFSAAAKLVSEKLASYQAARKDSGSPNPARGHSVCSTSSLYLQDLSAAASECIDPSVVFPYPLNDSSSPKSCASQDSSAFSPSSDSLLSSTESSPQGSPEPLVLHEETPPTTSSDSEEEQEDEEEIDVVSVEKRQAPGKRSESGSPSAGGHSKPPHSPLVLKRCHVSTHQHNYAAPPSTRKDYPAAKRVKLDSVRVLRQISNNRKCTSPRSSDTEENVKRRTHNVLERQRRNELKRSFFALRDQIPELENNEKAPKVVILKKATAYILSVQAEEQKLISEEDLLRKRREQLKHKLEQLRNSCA
Excerpt: Using the method of LUC experiment, c-Myc (NCBI accession number: NM_002467.6) was subcloned to pCAMBIA NLuc vector (Chen, H., et al. “Firefly Luciferase Complementation Imaging Assay for Protein-Protein Interactions in Plants.” Plant Physiology 146.2(2008):368-376.) between the KpnI and SalI cleavage sites, and GhJAZ1 (SEQ ID No. 39) was subcloned to pCAMBIA-CLuc vector (Chen, H., et al. “Firefly Luciferase Complementation Imaging Assay for Protein-Protein Interactions in Plants.” Plant Physiology 146.2(2008):368-376.) between the KpnI and SalI cleavage sites. The constructed recombinant plasmids verified to be positive by sequencing were transformed into Agrobacterium GV3101 (pSoup-p19) (Shanghai Weidi biology technology co., Ltd, Cat. No.: AC1003), which were co-transfected into tobacco leaves. 2-3 days after injection, the infected leaves coated with the fluorescent substrate were placed in a dark chamber of the instrument for at least 6 min before taking images to quench fluorescence, followed by observation on the Nightowl-II LB983 instrument, using IndigoBasic software under the luciferase-5 min setting conditions. Cultivation was performed after co-infection. If there is interaction, LUC luciferase is expressed, and luminescence is detected after substrate application. As shown in F in FIG. 6, GhJAZ1 interacts with c-Myc.

binding result (NMYC): binds
binding result (uPAR-D1D2): no binding
binding result (GhNINJA): binds
binding result (GhTPL): binds
binding result (GhHDA6): binds
binding result (c-Myc-150aa): binds
binding result (c-Myc-215aa): binds
binding result (GhCOI1): binds
binding result (GhMYC2): binds
binding result (c-Myc): binds
B1: GhJAZ1 (other)
chain: MSSCSESTAMKPARSPEKPSFAQTCNLLSQYLKEKGSFGDLSLGMTCNVEANGTPVVPPPTMNLFPLNDKSDDVCGRNGGNPKNLTSMDLFPQQAGLASKDDSPNKLEPQTAPMTIFYGGQVIVFNDFPANKAKEIMLLASNSSSQSNNSFNPIPFTSSIARSPIESSIGVPPTSKPVHPAQRAVPGDLPIARRASLHRFLEKRKDRITAKAPYQINNSAAAPSLSGDNKSWLGLAAQSP
notes: In yeast two hybrid it was expressed from pGBKT7 (BD fusion), in the luciferase experiment from pCAMBIA-CLuc, in BiFC from pUC-SPYNE; also called cotton JAZ1
